According to US20170183404A1 (VIB VZW, published 2017):

What follows are binders tested against T1, truncDelta mMor1 reconstituted in liposomes (mouse, UniProt P42866 52-358) (assay: ELISA (OD405), five-fold diluted periplasm, 10 µM Dmt1-Dalda; reference: mock liposomes).
T1 construct: The assayed protein lacks the N-terminal part before the TEV site and the C-terminal part after the 3C site; It was purified, doped with Dmt1-Dalda and reconstituted in DOPC/CHS/lipid A vesicles; also called truncDelta mMor1 liposome; recombinant mMOR1 reconstituted in liposomes
Experimental: DNPP (Sigma, cat nr 71768) was used to develop the colorimetric signal. Absorbance was measured at OD405 nm and results are depicted in FIG. 6. […] All VHHs tested confirm specific binding to truncDelta mMor1 reconstituted in liposomes. As truncDelta mMor1 is truncated at its N- and C-terminus, most likely these VHHs interact with extracellular or intracellular Mor1 conformational epitopes.

T1 sequence (P42866 52-358, tags or fused parts left off): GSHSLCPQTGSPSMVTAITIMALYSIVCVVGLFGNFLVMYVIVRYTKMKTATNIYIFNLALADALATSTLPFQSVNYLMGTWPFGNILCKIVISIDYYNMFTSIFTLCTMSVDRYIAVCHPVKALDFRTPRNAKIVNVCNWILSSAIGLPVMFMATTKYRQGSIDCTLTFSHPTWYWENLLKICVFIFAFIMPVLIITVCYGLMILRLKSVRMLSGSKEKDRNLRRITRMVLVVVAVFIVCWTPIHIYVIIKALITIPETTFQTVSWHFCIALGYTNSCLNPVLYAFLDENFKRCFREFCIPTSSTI

Row | Binder | absorbance on truncDelta mMor1 liposomes relative to mock liposomes
1 | XA8643 (VHH, Tested as periplasmic extract; also called 598G11; X8643) VHH: QVQLVESGGGLVRPGGSLRLSCVDSERTSYPMGWFRRAPGKEREFVASITWSGIDPTYADSVADRFTISRDVANNTLYLQMNSLKHEDTAVYYCAARAPVGQSSSPYDYDYWGQGTQVTVSS | ≥ 3 fold
2 | XA8639 (VHH, also called 598A7; Nb39) VHH: QVQLVESGGGLVRPGGSLRLSCVDSERTSYPMGWFRRAPGKEREFVASITWSGIDPTYADSVADRFTTSRDVANNTLYLQMNSLKHEDTAVYYCAARAPVGQSSSPYDYDYWGQGTQVTVSS | ≥ 3 fold
3 | XA8641 (VHH, Tested as periplasmic extract; also called 598A2; Profile I VHH) VHH: QVQLVESGGGLVRPGGSLRLSCVDSGRTSYPMGWFRRAPGKEREFVASITWSGIDPTYADSVADRFTISRDVANNTLYLQMNSLKHEDTAVYYCAARAPVGQSSSPYDYDYWGQGTQVTVSS | ≥ 3 fold
4 | XA8635 (VHH, Tested as periplasmic extract and as purified protein; also called 601H10; monovalent XA8635) VHH: QVQLVESGGGLVQAGGSLRLSCAASGSISSISTMGWYRQAPGNERELVAAITSGGSTNYADSVKGRFTISRDNAKNTVYLQMNSLKPEDTAVYYCNFKYYSGSYFYKSEYDYWGQGTQVTVSS | ≥ 3 fold
5 | XA8727 (VHH, Tested as periplasmic extract; also called 599D2; Profile III VHH) VHH: QVQLVESGGGLVQAGGSLRLSCAASGFTFDDYAIAWFRQAPGKEREGVSCISSSDGSTYYADSVKGRFTISNDNAKNTVYLQMNSLKPEDTAVYYCAADLSRSCGRGYRYLEVWGQGTQVTVSS | ≥ 3 fold

These binders were tested against T2, wild-type human Mor1 (human mu-type opioid receptor) (human, UniProt P35372 1-400) (assay: displacement of 1 nM [3H]-diprenorphine from WT hMor1/CHO membranes by a concentration range of XA8635).
T2 construct: Used as CHO membranes (Perkin Elmer ES-542-M400UA) in the radioligand assay and on transfected CHO cells in flow cytometry; also called WT hMor1/CHO; hMor1/CHO
Experimental: The mixture was incubated for 1 hour at RT and after washing, filter bound radioligand was measured.

T2 sequence (P35372 whole entry): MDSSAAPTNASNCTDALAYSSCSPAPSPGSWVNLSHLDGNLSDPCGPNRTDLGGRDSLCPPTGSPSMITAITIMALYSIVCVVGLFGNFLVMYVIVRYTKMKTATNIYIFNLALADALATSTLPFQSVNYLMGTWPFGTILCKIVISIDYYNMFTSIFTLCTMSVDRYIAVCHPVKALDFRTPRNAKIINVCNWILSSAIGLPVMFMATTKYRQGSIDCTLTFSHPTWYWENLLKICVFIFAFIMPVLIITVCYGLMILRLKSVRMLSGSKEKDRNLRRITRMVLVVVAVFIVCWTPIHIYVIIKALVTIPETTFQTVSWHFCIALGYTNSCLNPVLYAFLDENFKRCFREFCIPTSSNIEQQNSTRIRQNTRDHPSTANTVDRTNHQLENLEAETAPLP

Row | Binder | binding result
6 | XA8635 (VHH, Tested as periplasmic extract and as purified protein; also called 601H10; monovalent XA8635) VHH: QVQLVESGGGLVQAGGSLRLSCAASGSISSISTMGWYRQAPGNERELVAAITSGGSTNYADSVKGRFTISRDNAKNTVYLQMNSLKPEDTAVYYCNFKYYSGSYFYKSEYDYWGQGTQVTVSS | binds
